Source: patent US20060239990A1 (published 2006)

T1: mouse retinoblastoma protein (RB), endogenous in MEFs (mouse, UniProt P13405 2-921)
T1 sequence (looked up): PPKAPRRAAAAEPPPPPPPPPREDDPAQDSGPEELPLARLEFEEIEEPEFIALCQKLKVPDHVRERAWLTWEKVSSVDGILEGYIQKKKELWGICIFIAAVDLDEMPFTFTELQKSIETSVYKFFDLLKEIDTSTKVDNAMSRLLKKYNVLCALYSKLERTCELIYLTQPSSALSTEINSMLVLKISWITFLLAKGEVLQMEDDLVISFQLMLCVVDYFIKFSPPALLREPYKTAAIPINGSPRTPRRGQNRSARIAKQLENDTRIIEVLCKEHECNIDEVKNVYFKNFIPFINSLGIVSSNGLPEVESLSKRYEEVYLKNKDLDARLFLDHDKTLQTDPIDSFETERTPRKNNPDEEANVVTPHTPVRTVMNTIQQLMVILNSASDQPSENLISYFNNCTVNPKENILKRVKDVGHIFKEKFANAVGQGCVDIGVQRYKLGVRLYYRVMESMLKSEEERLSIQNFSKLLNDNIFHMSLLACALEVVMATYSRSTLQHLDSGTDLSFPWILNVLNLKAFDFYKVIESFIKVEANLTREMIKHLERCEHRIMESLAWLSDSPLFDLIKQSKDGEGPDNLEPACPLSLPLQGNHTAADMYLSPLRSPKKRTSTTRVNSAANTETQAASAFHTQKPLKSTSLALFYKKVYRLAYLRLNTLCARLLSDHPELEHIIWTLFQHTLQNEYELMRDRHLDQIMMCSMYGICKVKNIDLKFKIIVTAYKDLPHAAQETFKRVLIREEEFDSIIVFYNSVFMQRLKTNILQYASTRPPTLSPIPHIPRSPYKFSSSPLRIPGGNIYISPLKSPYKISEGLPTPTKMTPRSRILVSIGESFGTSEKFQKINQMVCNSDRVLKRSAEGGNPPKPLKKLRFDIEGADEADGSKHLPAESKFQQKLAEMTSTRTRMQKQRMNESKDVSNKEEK

T2: retinoblastoma protein (RB), endogenous in cultured cell lines (293, U2OS) (human, UniProt P06400 2-928)
T2 construct: also called endogenous RB
T2 sequence (looked up): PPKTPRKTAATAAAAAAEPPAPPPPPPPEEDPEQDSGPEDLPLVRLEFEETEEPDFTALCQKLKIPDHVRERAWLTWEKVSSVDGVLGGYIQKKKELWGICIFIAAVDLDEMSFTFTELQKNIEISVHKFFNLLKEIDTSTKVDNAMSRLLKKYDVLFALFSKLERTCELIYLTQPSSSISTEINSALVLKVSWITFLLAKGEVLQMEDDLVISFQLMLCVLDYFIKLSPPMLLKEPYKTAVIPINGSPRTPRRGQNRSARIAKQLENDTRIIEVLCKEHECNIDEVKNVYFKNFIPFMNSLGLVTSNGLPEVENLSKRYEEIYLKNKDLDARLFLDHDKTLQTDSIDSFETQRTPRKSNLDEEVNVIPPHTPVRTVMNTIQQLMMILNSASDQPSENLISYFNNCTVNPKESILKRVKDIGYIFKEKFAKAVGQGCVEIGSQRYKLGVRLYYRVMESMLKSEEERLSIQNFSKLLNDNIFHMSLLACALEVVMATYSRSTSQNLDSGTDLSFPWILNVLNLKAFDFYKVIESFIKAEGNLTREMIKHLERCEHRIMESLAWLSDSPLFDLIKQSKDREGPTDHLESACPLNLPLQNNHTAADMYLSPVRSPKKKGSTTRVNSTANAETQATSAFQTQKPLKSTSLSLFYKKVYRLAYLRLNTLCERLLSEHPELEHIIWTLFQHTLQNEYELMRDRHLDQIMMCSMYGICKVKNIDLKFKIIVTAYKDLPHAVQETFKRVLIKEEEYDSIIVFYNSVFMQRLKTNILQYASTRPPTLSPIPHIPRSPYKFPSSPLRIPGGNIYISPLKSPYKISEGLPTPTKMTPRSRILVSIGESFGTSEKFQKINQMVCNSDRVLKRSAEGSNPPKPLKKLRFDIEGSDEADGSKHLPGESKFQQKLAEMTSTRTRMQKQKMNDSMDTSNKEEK

B1: mouse PRMT2 (untagged; endogenous in NIH3T3 cells, MEFs, GT1-7 cells and VSMC, or expressed from mouse PRMT2 cDNA in HEK293 cells) (enzyme, UniProt Q9R144 1-448, looked up)
chain: MEAPGEGPCSESQVIPVLEEDPVDYGCEMQLLQDGAQLQLQLQPEEFVAIADYTATDETQLSFLRGEKILILRQTTADWWWGERAGCCGYIPANHLGKQLEEYDPEDTWQDEEYFDSYGTLKLHLEMLADQPRTTKYHSVILQNKESLKDKVILDVGCGTGIISLFCAHHARPKAVYAVEASDMAQHTSQLVLQNGFADTITVFQQKVEDVVLPEKVDVLVSEWMGTCLLFEFMIESILYARDTWLKGDGIIWPTTAALHLVPCSAEKDYHSKVLFWDNAYEFNLSALKSLAIKEFFSRPKSNHILKPEDCLSEPCTILQLDMRTVQVPDLETMRGELRFDIQKAGTLHGFTAWFSVYFQSLEEGQPQQVVSTGPLHPTTHWKQTLFMMDDPVPVHTGDVVHGFCCVTKKSGMEKAHVCLSELGCHVRTRSHVSTELETGSFRSGGDS
notes: also called endogenous PRMT2
B2: mouse PRMT2-Flag (FLAG-tagged full-length PRMT-2) (enzyme, UniProt Q9R144 1-448, looked up)
chain: B1 chain
notes: Printed both as PRMT2-Flag and as Flag-PRMT2, so the end that carries the tag is uncertain; Expressed in HEK293 cells; also called Flag-PRMT2; Flag PRMT2 fusion protein; not shown: Flag tag
B3: IκB-α, endogenous in 293 cells (other, human, UniProt P25963 1-317, looked up)
chain: MFQAAERPQEWAMEGPRDGLKKERLLDDRHDSGLDSMKDEEYEQMVKELQEIRLEPQEVPRGSEPWKQQLTEDGDSFLHLAIIHEEKALTMEVIRQVKGDLAFLNFQNNLQQTPLHLAVITNQPEIAEALLGAGCDPELRDFRGNTPLHLACEQGCLASVGVLTQSCTTPHLHSILKATNYNGHTCLHLASIHGYLGIVELLVSLGADVNAQEPCNGRTALHLAVDLQNPDLVSLLLKCGADVNRVTYQGYSPYQLTWGRPSTRIQQQLGQLTLENLQMLPESEDEESYDTESEFTEFTEDELPYDDCVFGGQRLTL
notes: also called endogenous IκB-α
B4: HA-tagged PRMT2 (human Protein Arginine N-Methyltransferase 2, expressed from pVR1012-PRMT2-HA) (enzyme)
chain: MATSGDCPRSESQGEEPAECSEAGLLQEGVQPEEFVAIADYAATDETQLSFLRGEKILILRQTTADWWWGERAGCCGYIPANHVGKHVDEYDPEDTWQDEEYFGSYGTLKLHLEMLADQPRTTKYHSVILQNKESLTDKVILDVGCGTGIISLFCAHYARPRAVYAVEASEMAQHTGQLVLQNGFADIITVYQQKVEDVVLPEKVDVLVSEWMGTCLLFEFMIESILYARDAWLKEDGVIWPTMAALHLVPCSADKDYRSKVLFWDNAYEFNLSALKSLAVKEFFSKPKYNHILKPEDCLSEPCTILQLDMRTVQISDLETLRGELRFDIRKAGTLHGFTAWFSVHFQSLQEGQPPQVLSTGPFHPTTHWKQTLFMMDDPVPVHTGDVVTGSVVLQRNPVWRRHMSVALSWAVTSRQDPTSQKVGEKVFPIWR
notes: Expressed by transient transfection in 293 or Saos 2 cells; also called HA-PRMT2; not shown: HA tag at the C-terminus

Assays:
[1] = biological target: T3, mouse STAT3 (endogenous in GT1-7 cells and VSMC, or expressed from mouse STAT3 pcDNA3 in HEK293 cells) (mouse, UniProt P42227 2-770); assay: immunoprecipitation with anti-STAT3 antibody from GT1-7 cell extracts with or without leptin (100 nM), immunoblot with anti-PRMT-2 antibody
T3 sequence (P42227 2-770 limits assumed): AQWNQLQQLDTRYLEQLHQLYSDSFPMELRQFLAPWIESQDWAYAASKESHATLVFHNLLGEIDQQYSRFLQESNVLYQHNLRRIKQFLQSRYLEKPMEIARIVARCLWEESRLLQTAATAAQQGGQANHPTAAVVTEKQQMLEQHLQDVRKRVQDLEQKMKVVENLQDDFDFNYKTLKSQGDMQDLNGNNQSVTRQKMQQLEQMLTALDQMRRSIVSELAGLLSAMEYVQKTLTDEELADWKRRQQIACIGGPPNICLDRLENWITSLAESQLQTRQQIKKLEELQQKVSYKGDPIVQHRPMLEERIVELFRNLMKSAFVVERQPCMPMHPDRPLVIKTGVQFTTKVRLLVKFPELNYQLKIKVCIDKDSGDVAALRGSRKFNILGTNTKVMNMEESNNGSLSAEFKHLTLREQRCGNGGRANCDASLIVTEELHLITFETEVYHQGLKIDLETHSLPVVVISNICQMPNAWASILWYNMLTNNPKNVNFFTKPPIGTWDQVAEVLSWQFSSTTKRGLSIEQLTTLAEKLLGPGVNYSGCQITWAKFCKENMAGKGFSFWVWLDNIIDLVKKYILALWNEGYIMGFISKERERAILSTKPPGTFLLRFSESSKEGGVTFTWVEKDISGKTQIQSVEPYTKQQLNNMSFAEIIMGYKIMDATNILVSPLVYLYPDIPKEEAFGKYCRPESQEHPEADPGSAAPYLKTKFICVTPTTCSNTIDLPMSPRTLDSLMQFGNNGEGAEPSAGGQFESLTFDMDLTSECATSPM
Procedure: A mouse hypothalamic cell line, GT1-7, was established that expressed both STAT3 and PRMT-2 (FIG. 21B), and used as a cell model for the study of leptin signaling. To further examine whether leptin stimulated endogenous interaction between PRMT-2 and STAT3, extracts from the cells that were untreated or treated with mouse leptin (100 nM) were subjected to immunoprecipitation with anti-STAT3 antibody, followed by immunoblotting with anti-PRMT-2 antibody. […] However, treatment with leptin enhanced that amount PRMT-2 that co-precipitated with STAT3 (FIG. 21B, lane 3). PRMT-2 was not detectable in immunoprecipitates obtained with preimmune rabbit IgG (FIG. 21B, lane 1).

[2] = biological target: T1, mouse retinoblastoma protein (RB), …; assay: cell-based or functional assay
[3] = biological target: T3, mouse STAT3 (endogenous in GT1-7 cells …); assay: immunoprecipitation with anti-Flag antibody from HEK293 cells transfected with PRMT-2-Flag and STAT3, immunoblot
Procedure: (§1) To examine whether a direct interaction occurs between PRMT-2 and STAT3 in vivo, FLAG-tagged full-length PRMT-2 cDNA and/or STAT3 cDNA were transiently transfected into HEK293 cells. After culturing the transfected cells, an immunoprecipitation was performed on cell lysates using anti-Flag antibodies followed by immunoblotting with anti-PRMT-2 antibody. […] Identical results were observed when using anti-STAT3 antibodies for immunoprecipitation (data not shown).

[4] = biological target: T4, STAT3, endogenous in HEK293 cells (human, UniProt P40763 2-770); assay: immunoprecipitation with anti-Flag antibody from transfected HEK293 cells, immunoblot
T4 construct: also called endogenous STAT3
T4 sequence (P40763 2-770 limits assumed): as the sequence (P42227 2-770 limits assumed) above, with D759E counted along it
Procedure: as §1

[5] = biological target: B4; assay: immunoprecipitation with anti-HA antibody from transfected 293 cells, immunoblot for endogenous IκB-α
Source text: (§2) To map IκB-α domains that interacted with PRMT2, 293 cells were transfected with HA-tagged PRMT2 (FIG. 5C) and His-tagged derivatives of the indicated IκB-α expression vectors (FIG. 5B) as indicated. 24 hrs later cells were harvested in cell lysis buffer and cell lysates were immunoprecipitated with agarose-conjugated antibody to His (IκB-α) (FIG. 5D, lanes 1-4) and HA (PRMT2) (FIG. 5D, lanes 5-6), fractionated by SDS-PAGE and analyzed by immunoblotting with antibody to HA to detect PRMT2 ((FIG. 5D lanes 1, 2 and lanes 5, 6) and His (FIG. 5D, lanes 3, 4). To map the region of PRMT2 that interacted with endogenous IκB-α and p65, 293 cells were transfected with HA-tagged PRMT2 (FIG. 5C) derivatives as indicated. Cells were harvested 24 hrs after transfection in cell lysis buffer, immunoprecipitated with agarose-conjugated antibody to HA to detect PRMT2 and derivatives (FIG. 5E, lanes 7-15), fractionated by SDS-PAGE and analyzed by immunoblotting with antibody to p65 (FIG. 5E, lanes 7-9), IκB-α (FIG. 5E, lanes 10-12) or HA (FIG. 5E, lanes 13-15).
A polyclonal antibody to recombinant PRMT2 was used to examine the association between endogenous PRMT2 and IκB-α in vivo. […] The domain of IκB-α required for association with PRMT2 was mapped using in vivo immunoprecipitation assays where HA-tagged PRMT2 was coexpressed with truncation mutants of His-tagged IκB-α (FIG. 5B) in 293 cells. […]

[6] = biological target: T2, retinoblastoma protein (RB), endogenous …; assay: immunoprecipitation of endogenous RB from 293 cells transfected with HA-tagged PRMT2, Western blot with anti-HA antibody
Procedure: FIG. 8A-C illustrate that PRMT2 interacts with retinoblastoma protein (RB). […] GST-RB and GST were bound to glutathione sepharose beads and incubated with S³⁵-labeled in vitro translated PRMT1, PRMT2, PRMT3, and PRMT4. Co-precipitated labeled PRMTs were analyzed by SDS-PAGE. […] HA-tagged PRMT2 (+) or control vectors (−) were transfected in 293 cells. Cell lysates were immunoprecipitated with rabbit RB antibodies or IgG and followed by Western blot analysis using mouse HA and RB antibodies (upper panel). A Western blot using mouse HA antibodies detects HA-tagged PRMT2 (lower panel).
The interaction of PRMT2 with RB was then analyzed in vivo. HA-tagged PRMT2 expression vectors or control vectors were transfected into 293 cells, and immunoprecipitation of endogenous RB was followed by a Western blot analysis using an anti-HA antibody. PRMT2 directly interacted with RB in contrast to control vectors (FIG. 8C).

RelA (p65) in 293 cells = biological target: T5, RelA (p65) in 293 cells (UniProt Q04206 1-551); assay: immunoprecipitation with anti-HA antibody from transfected 293 cells, immunoblot for p65
T5 construct: also called endogenous p65
T5 sequence (Q04206 whole entry): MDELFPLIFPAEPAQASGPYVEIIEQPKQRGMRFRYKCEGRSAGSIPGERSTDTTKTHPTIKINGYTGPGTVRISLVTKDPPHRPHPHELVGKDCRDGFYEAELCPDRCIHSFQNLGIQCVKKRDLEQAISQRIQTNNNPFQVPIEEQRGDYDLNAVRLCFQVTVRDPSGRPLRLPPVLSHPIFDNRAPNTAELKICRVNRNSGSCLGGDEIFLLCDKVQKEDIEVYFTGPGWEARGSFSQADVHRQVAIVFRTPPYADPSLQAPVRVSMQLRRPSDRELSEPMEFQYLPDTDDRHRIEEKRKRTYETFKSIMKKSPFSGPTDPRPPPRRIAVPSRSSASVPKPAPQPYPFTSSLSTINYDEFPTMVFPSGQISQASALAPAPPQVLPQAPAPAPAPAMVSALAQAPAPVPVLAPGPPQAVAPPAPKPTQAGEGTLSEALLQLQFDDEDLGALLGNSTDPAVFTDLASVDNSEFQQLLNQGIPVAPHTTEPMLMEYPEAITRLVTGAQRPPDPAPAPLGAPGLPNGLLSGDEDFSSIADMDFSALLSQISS
Source text: as §2
A polyclonal antibody to recombinant PRMT2 was used to examine the association between endogenous PRMT2 and IκB-α in vivo. […] The domain of IκB-α required for association with PRMT2 was mapped using in vivo immunoprecipitation assays where HA-tagged PRMT2 was coexpressed with truncation mutants of His-tagged IκB-α (FIG. 5B) in 293 cells. The ankyrin domain was both necessary and sufficient for this association (FIG. 5D, lanes 1 and 2). The domain of PRMT2 that interacted with endogenous IκB-α was mapped by immunoprecipitation following expression HA-tagged PRMT2 truncation mutants (FIG. 5C). […] When the ratios of PRMT2 or PRMT2-A binding to IκB-α were compared, both interacted with IκB-α with similar affinity.

Binder: B1
- binding result [1]: binds
- E2F reporter activity (E2F4B-Luc) in MEFs [2]: ~3 fold

Binder: B2
- binding result [3]: binds
- binding result [4]: binds

Binder: B3
- binding result [5]: binds

Binder: B4
- binding result [6]: binds
- binding result (RelA (p65) in 293 cells): no binding
